The values that follow come from patent US11780910 (dated 2023).

One may read the Kd as the equilibrium constant for the complex coming apart. Higher therefore signals weaker binding.

Assay [1] has as its target T1, human ANGPTL3 17-220 (human).
T1 chain: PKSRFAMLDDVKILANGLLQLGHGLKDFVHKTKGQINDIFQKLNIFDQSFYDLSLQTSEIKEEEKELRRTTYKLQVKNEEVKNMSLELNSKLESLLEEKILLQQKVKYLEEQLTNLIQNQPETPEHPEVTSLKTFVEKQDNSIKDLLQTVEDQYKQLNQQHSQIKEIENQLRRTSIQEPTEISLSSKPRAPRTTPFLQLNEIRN
Kind of assay: SPR, pH 7.4, 37C. A general note: In SPR one partner is held on a chip, and binding of the other changes the refractive index at the surface.

The target in assay [2] is T1, human ANGPTL3 17-220. Kind of assay: SPR, pH 6.0, 37C.
Assay [3] concerns the target T1, human ANGPTL3 17-220. Kind of assay: SPR, pH 6.0, 37C.

Numbering of substitutions follows the chain as printed.

B1: tmAb2 (antibody, V domains shown)
VH: EVQLLESGGGLVQPGGSLRLSCAASDFNFRSYWMTWVRQAPGKGLEWVSSISSHSTYIYYADSVKGRFTISRDNSKNTLYLQMNSLRAEDTATYYCAREGWYDNWFDPWGQGTLVTVSS
VL: EIVLTQSPGTLSLSPGERATLSCRASQNIRSPYLAWYQQKPGQAPRLLIYGVSSRAAGIPDRFSGSGSGTDFTLTISRLEPEDFAVYYCQQYDDHPYTFGQGTKLEIK
In turn, B1 gave a Kd in the assay with human ANGPTL3 17-220 [1] of 43 nM. Further, in the assay with human ANGPTL3 17-220 [2], the binding result is reported as “no binding”.

B2: tmAb3 (antibody, V domains shown)
VH: B1 VH with D26G, R30E
VL: B1 VL
Take B2: the Kd with human ANGPTL3 17-220 [3] came to 3000 nM; with human ANGPTL3 17-220 [1] it was 18 nM.

B3: tmAb4 (antibody, V domains shown)
VH: B1 VH with D26G, R30E, F106N
VL: B1 VL
In turn, B3 returned a Kd with human ANGPTL3 17-220 [1] of 56 nM. For the same molecule, the binding result in the assay with human ANGPTL3 17-220 [2] is “no binding”.

B4: tmAb1 (antibody, V domains shown)
VH: B1 VH with D26G
VL: B1 VL
As to B4, the Kd with human ANGPTL3 17-220 [3] stood at 2000 nM; with human ANGPTL3 17-220 [1], 21 nM.
